This series deals with the molecule itself. Briefly: crystal structure.

B1: dCaprin fragment (residues 187-309), dimerization domain of Drosophila melanogaster Caprin (domain or fragment)
chain: GPSSPSRKDNLAKTIAETAKIREVLIIQNVLNCFNDDQVRSDFLNGENGAKKLENTELELLEKFFIETQTRRPETADDVSFIATAQKSAELFYSTINARPKSFGEVSFEKLRSLFQQIQDSGYLDKYYL
modifications: Se-Met labelled (L-seleno-methionine in place of methionine) in the crystal used for the structure
As to B1, the “stoichiometry N” value is 2.

A word on the stoichiometry N: it is a count of units in the complex or per binding partner.
